Assays:
[1] = biological target: T1, biotin labeled soluble human SIRPα v1 ECD recombinant protein (human, UniProt P78324 31-373, biotin labeled); experiment: competitive ELISA; competitor 074
T1 construct: extracellular domain
Experimental: (§1) Competitive ELISA assay was used for epitope binning of 9 functional antibodies. Briefly excessive competitor antibody and biotin labeled soluble human SIRPα v1 ECD recombinant protein were co-incubated with ELISA microplate coated antibody. After washing, HRP-SA was added and incubated at 37° C. for 1 hour. Then, […] of TMB solution (Biotechnology) was added. After incubation for 15 minutes at room temperature, the reaction was stopped by the addition of […] of 1N HCl. OD 450 nm was read. Competition ratio was calculated. The antibodies that can compete each other for binding to SIRPα have the similar binding epitope.

[2] = biological target: T1, biotin labeled soluble human SIRPα v1 …; experiment: competitive ELISA; competitor 002
Experimental: as §1

[3] = biological target: T1, biotin labeled soluble human SIRPα v1 …; experiment: competitive ELISA; competitor 035
Experimental: as §1

[4] = biological target: T1, biotin labeled soluble human SIRPα v1 …; experiment: competitive ELISA; competitor 29-AM4-5
Experimental: as §1

T1 sequence (P78324 31-373): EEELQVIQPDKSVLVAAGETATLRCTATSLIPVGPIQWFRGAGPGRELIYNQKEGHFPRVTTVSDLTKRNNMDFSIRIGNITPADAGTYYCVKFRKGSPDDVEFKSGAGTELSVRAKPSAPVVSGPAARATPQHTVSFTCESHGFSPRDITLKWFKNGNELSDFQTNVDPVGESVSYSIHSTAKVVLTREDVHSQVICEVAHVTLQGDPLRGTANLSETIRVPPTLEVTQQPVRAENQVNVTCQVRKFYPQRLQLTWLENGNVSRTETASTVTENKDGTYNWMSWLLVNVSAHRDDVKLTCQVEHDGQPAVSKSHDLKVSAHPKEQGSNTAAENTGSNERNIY

Row | % Competition [1] [%] | % Competition [2] [%] | % Competition [3] [%] | % Competition [4] [%] | Binder
1 | 2 | 3 | -4 | -6 | Antibody 050 (hybridoma antibody) (antibody, V domains shown, mouse hybridoma antibody) VH: QIQLVQSGPELKKPGETVKISCKASGYTFTHYSMHWVKQAPGKGLKWMGWINTETAEPTYVDDFKGRFAFSLEASASTAFFQINNLKNEDTATYFCARGGLRQGDYWGQGTTLTVSS VL: QIVLTQSPPIMSASPGEKVTLTCSATSSVSASYLYWFQQKPGSSPKLWIYSTSNLASGVPARFSGSGSGTSYSLTISNMEPADAASYFCHQWSSYPYTFGGGTKLEIK
2 | 92 | 14 | 10 | -19 | Antibody 074 (hybridoma antibody) (antibody, V domains shown, mouse hybridoma antibody) VH: QVQLQQPRAELVKPGASVMLSCKASGYTFSSYWIHWVRQGPGQGLEWIGLIHPNSGNTDCSETFKNKATLTVDTSSSTAYMQLSSLASEDSAVYYCARDGASYDWFVHWGQGTLVTVSA VL: not shown
3 | -1 | 6 | 0 | 2 | Antibody 022 (hybridoma antibody) (antibody, V domains shown, mouse hybridoma antibody) VH: QIQLVQSGPELKKPGETVKISCKASGYTFTDYAMHWVKQAPGKGLKWMGWKNTETGESTYAEDFKGRFAFFLETSASTAYLQINNVKNEDTATYFCARGGYGSNYVMDYWGQGTSVIVSS VL: DIQMTQSSSSFSVSLGDRVTITCKASEDIYNRLAWYQQKPGNAPRLLISGATSLETGVPSRFSGSGSGKDYTLSITSLQTEDVATYYCQQYWNSPRTFGGGTKLEIK
